# Reference: PMC4899871 (2016)
# B1: GST-HA-ATG16L1-320–607 (recombinant WD40 domain fused to GST and the HA tag) [human] / TMEM59 263–281 peptide, wild type (19-amino acid peptide that includes the ATG16L1-binding motif) [modified: Immobilised through the N-terminus by a … (parent complex)
# chain 1: AHDGEVNAVQFSPGSRLLATGGMDRRVKLWEVFGEKCEFKGSLSGSNAGITSIEFDSAGSYLLAASNDFASRIWTVDDYRLRHTLTGHSGKVLSAKFLLDNARIVSGSHDRTLKLWDLRSKVCIKTVFAGSSCNDIVCTEQCVMSGHFDKKIRFWDIRSESIVREMELLGKITALDLNPERTELLSCSRDDLLKVIDLRTNAIKQTFSAPGFKCGSDWTRVVFSPDGSYVAAGSAEGSLYIWSVLTGKVEKVLSKQHSSSINAVAWSPSGSHVVSVDKGCKAVLWAQY
# chain 2: TAVEQYVPSEKLSIYGDLE
# B2: GST-HA-ATG16L1-231–607 T300, purified from human cells [human] / TMEM59 263–281 peptide, wild type (19-amino acid peptide that includes the ATG16L1-binding motif) [modified: Immobilised through the N-terminus by a long spacer (Tds). Some … (parent complex)
# chain 1: PLPVEQDDDIEVIVDETSDHTEETSPVRAISRAATKRLSQPAGGLLDSITNIFGRRSVSSFPVPQDNVDTHPGSGKEVRVPATALCVFDAHDGEVNAVQFSPGSRLLATGGMDRRVKLWEVFGEKCEFKGSLSGSNAGITSIEFDSAGSYLLAASNDFASRIWTVDDYRLRHTLTGHSGKVLSAKFLLDNARIVSGSHDRTLKLWDLRSKVCIKTVFAGSSCNDIVCTEQCVMSGHFDKKIRFWDIRSESIVREMELLGKITALDLNPERTELLSCSRDDLLKVIDLRTNAIKQTFSAPGFKCGSDWTRVVFSPDGSYVAAGSAEGSLYIWSVLTGKVEKVLSKQHSSSINAVAWSPSGSHVVSVDKGCKAVLWAQY
# chain 2: TAVEQYVPSEKLSIYGDLE
# Variants of: B1
# Experiment: peptide microarray; probe expressed in bacteria; mean ± s.d., n=9 replicas; parent: 100; read off a plot
row,Variant,percent of parent
1,"chain 2 Y6A, chain 2 E10A, chain 2 Y15A, chain 2 L18A","~2.5 % of WT peptide (OD635, normalized values)"

# Variants of: B2
# Experiment: peptide microarray; probe purified from human cells; mean ± s.d., n=9 replicas; parent: 100; read off a plot
row,Variant,percent of parent
1,"chain 2 Y6A, chain 2 E10A, chain 2 Y15A, chain 2 L18A","~3 % of WT peptide (OD635, normalized values)"
2,chain 2 Y15A,"~10 % of WT peptide (OD635, normalized values)"
3,chain 2 L18A,"~19 % of WT peptide (OD635, normalized values)"
4,chain 2 G16A,"~160 % of WT peptide (OD635, normalized values)"
5,chain 2 Y6A,"~45 % of WT peptide (OD635, normalized values)"
6,chain 2 V7A,"~140 % of WT peptide (OD635, normalized values)"
7,chain 2 K11A,"~96 % of WT peptide (OD635, normalized values)"
8,chain 2 E10A,"~130 % of WT peptide (OD635, normalized values)"

# Variants of: B2
# Experiment: peptide microarray; probe purified from human cells; mean ± s.d., n=9 replicas; parent: 9.3e+03; read off a plot
row,Variant,response
1,"chain 2 Y6A, chain 2 E10A, chain 2 Y15A, chain 2 L18A",~400 a.u. (OD635)

# Variants of: B2
# Experiment: peptide microarray; probes purified from human cells; mean ± s.d., n=54; values normalised to the A300 ligand (= 100); parent: 160; read off a plot
row,Variant,response
1,chain 1 T70A,"~100 OD635, normalized values (% of the A300 ligand signal)"
